T1: cyno CD30L LZ (cynomolgus monkey, UniProt A0A7N9CVX7 63-234)
T1 construct: extracellular domain; not shown: N-terminal isoleucine zipper motif
T1 sequence: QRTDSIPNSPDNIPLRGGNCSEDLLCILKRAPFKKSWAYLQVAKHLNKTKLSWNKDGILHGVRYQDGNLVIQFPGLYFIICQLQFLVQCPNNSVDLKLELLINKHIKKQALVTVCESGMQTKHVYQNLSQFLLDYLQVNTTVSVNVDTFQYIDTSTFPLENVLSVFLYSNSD


biological target: T1, cyno CD30L LZ; assay: blocking of cyno CD30L LZ binding to K299 cells (CD30)
Experimental: Anti-CD30L IgG antibodies were titrated into culture diluent (RPMI-1640 medium+10% heat-inactivated fetal bovine serum) and placed into round-bottomed 96-well microtiter plates (Costar® 96 well plate (Corning; Acton, Mass.) to give a range of final concentrations from luglmi to 10 pg/ml. As a positive control, a mouse anti-human CD30L monoclonal antibody was prepared as described in U.S. Pat. No. 5,480,981. The final volume of diluent and CD30L IgG was 100 μl/well. To each well was then added 50 µl of recombinant human CD30L isoleucine zipper ([…]). The huCD30L LZ construct consists of the extracellular domain of human CD30L (see U.S. Pat. No. 5,480,981) linked at its N-terminus to an isoleucine zipper motif modified by replacing the leucine residues with isoleucine residues. The single cell assay was also used to determine cyno cross-reactivity using a cyno CD30L LZ instead of the huCD30L LZ. CynoCD30L LZ was prepared as described for the human LZ molecule.
The plates were incubated for 45 minutes at room temperature. To each well was added 50 μl of K299 cells (4×10⁵ cells/ml). The plates were then incubated for 24 hours at 37° C. 5% CO₂.
The amount of IL-8 in the cell supernatants was determined by sandwich ELISA, using a CDCL8/IL-8 ELISA DuoSet kit according to the manufacturer's instructions (R&D Systems, Minneapolis, Minn.). IL-8 levels were interpolated from the ELISA standard curve using DeltaSoft 3 version 2.2 software (DeltaSoft, Inc. Hillsborough, N.J.). At results were expressed as the mean It standard error of the mean (SEM) for 3 replicate cultures calculated by GraphPad PRISM software v. 4.01 (GraphPad Software Inc., San Diego, Calif.) as were the IC₅₀ values. The IC₅₀ value derived using the huCD30L LZ for Antibody A1 was 2700 pM. The results using the cynoCD30L LZ can be found in Table 5.

Row | Binder | IC50 [nM]
1 | Antibody E (antibody, V domains shown, also called mAb E) VH: QVQLQESGPRLVKPSETLSLTCTVSGGSITNNYWSWIRQPAGKGLEWIGRVYSSGLTNYKPSLKSRVTMSVDTSKNQFSLRLNSVTAADTAVYYCARERATVTTRYHYDGMDVWGQGTSVTVSS VL: QSALTQPASVSGSPGQSITISCTGSSSDIGTYNYVSWYQQYPGKAPELMIYEVNNRPSGVSDRFSGSTSGNTASLTISGLQANDEADYYCSSYSSSSTWVFGGGTKLTVL | 1.3
2 | Antibody A (antibody, V domains shown, Human antibody (XenoMouse); also called mAb A; anti-hCD30L A) VH: QVQLQESGPGLVKPSETLSLTCTVSGGSISSYIWSWIRQPAGKGLEWIGRIYASGNTNYNPSLKSRVTMSVDTSKNQFSLKLSSMTAADTAVYYCARDYRVAGTYYYYYGLDVWGQGTTVTVSS VL: QSALTQPASVSGSPGQSITISCTGTSSDVGVYDYVSWYQQHPGKAPKLMIYEVSNRPSGVSNRFSGSKSGNTASLTISGLQTEDEADYYCSSYTSRSTWVFGGGTKLTVL | 1.4
3 | Antibody F (antibody, V domains shown, also called mAb F) VH: QVQLQESGPGLVKPSETLSLTCTVSGGSISSYYWSWIRQPAGKGLEWIGRIFASGSTNYNPSLRSRVTMSRDTSKNQFSLKLSSVTAADTAVYYCAKERVGVQDYYHYSGMDVWGQGTTVTVSS VL: QSALTQPASVSGSPGQSITISCTGTSSDVGLYNYVSWYQQQPGKAPKLMIYEVSKRPSGVSNRFSGSTSGNTASLTISGLQADDEADYSCSSYTSSSTWVFGGGTKLTVL | 0.45
